In assay [1] the test system is IL-8, CXCR1 and CXCR2 mRNA in HCC827GR. Nature of the assay: Real-time PCR gene expression in HCC827GR. Format: cell-based, human. The source says:
(§1) 18 s was used as an internal loading control.
That is to say, RISE P-8 can compete with IL-8 and attenuate its feedback to regulate gene expression of IL-8, CXCR1 and CXCR2 decreased.
(In general: In qPCR the cycle at which signal appears reflects the starting amount.)

Assay [2] relates to IL-8, CXCR1 and CXCR2 mRNA in PC9GR. As to the kind of experiment: Real-time PCR gene expression in PC9GR. Format: cell-based, human. The conditions noted are these: 5 μM Gefitinib, 24 hrs.
Source text: as §1
[…]. […] That is to say, RISE P-8 can compete with IL-8 and attenuate its feedback to regulate gene expression of IL-8, CXCR1 and CXCR2 decreased.

A further assay deals with human neutrophil. Nature of the assay: Modified Boyden chamber neutrophil chemotaxis to CXCL8. Format: cell-based. The conditions noted are these: CXCL8 combined with RISE P-8 in lower compartment. The procedure:
Please refer to FIG. 5, neutrophil chemotaxis was assessed using modified Boyden chamber microchemotaxis assays. The CXCL8 alone or combined with RISE P-8, were placed in the lower compartment of the Boyden chamber wells and purified neutrophil in the upper compartment. The migrated neutrophil were lysed and detected. The percentages of neutrophil migration were assessed and presented with Chemotaxis Index (CI) value. That is to say, CI=(intensityRISE P-8−intensityHBSS)/(intensityCXCL8−intensityHBSS)×100%.

The test system of the next assay is IL-8 in PC9GR. As to the kind of experiment: IL-8 protein expression in 3D (suspended) culture. It is filed as cell-based, human. The conditions noted are these: RISE P-8 200 ng/ml, 24 hrs, 2D vs suspended. As for the experimental part: (§2) Cells underwent serum-free 16-18 hr and suspended into 10^6 cells/mL in growth medium. 2×10^6 cells/well were seeded in coating/non-coating 6 well plates and treated with/without RISE P-8 (200 ng/ml) for 24 hrs.

A further assay relates to IL-8 in PC9. Nature of the assay: IL-8 protein expression in 3D (suspended) culture. To be noted: PC9, RISE P-8 200 ng/ml, 24 hrs, 2D vs suspended. Format: cell-based, human. The procedure: as §2
The subject of assay [3] is HCC827GR. Nature of the assay: Colony formation assay. Format: cell-based, human. The conditions noted are these: RISE P-8 200 ng/mL with Gefitinib 5 μM, vs control group and IL-8 group. The procedure: (§3) The colony formation assay was also performed to evaluate cell proliferation.
Assay [4] has as its system PC9GR. As to the kind of experiment: Colony formation assay. Format: cell-based, human. To be noted: RISE P-8 200 ng/mL with Gefitinib 5 μM, vs control group and IL-8 group. As for the experimental part: as §3
The test system of assay [5] is HCC827GR. Nature of the assay: Matrigel transwell invasion assay. It is filed as cell-based, human. The procedure:
(§4) The invasion ability of cell was performed by using 8 μm pore size transwell (Corning FluoroBlok™). The transwell insert was coated with 60 μl matrigel (300 μg/ml in serum-free medium, BD Bioscience) overnight at 37° C. in 5% CO2 atmosphere. 2.5×10^4 cells in 0.2 mL of serum-free growth medium were seeded into the upper chamber coated with matrigel and then treated with drugs IL-8 (100 ng/ml) with/without RISE P-8 (200 ng/ml). After incubation for 24 hrs at 37° C. in 5% CO2, membrane of upper chamber was fixed with methanol and stained with propidium iodide (PI). The invasive cells in the bottom of membrane were imaged and counted by using an inverted fluorescence microscope (Observer.Z1, Zeiss) in five random fields of each specimen (magnification, ×100).

Assay [6] deals with PC9GR. Nature of the assay: Matrigel transwell invasion assay. It is filed as cell-based, human. As for the experimental part:
as §4

For assay [7], the system named is LL/2 cells (Lewis lung carcinoma). Nature of the assay: Matrigel transwell invasion assay. Format: cell-based, mouse. The conditions noted are these: RISE P-8 200 ng/ml, 24 hr. As for the experimental part: Lewis lung carcinoma (LL/2) is a cell line established from the lung of a C57BL mouse bearing a tumor resulting from an implantation of primary Lewis lung carcinoma.
Please refer to FIG. 13A and FIG. 13B, the present invention also represented invasion of LL/2 cells (Louis lung carcinoma) treated with CXCL8, MIP-2 or RISE P-8. The character of LL/2 cancer cell is very prone to invasion into lung and grows rapidly. The LL/2 cells were seeded onto Matrigel-coated polycarbonate filters to analyze their invasive potentials. The cells were then incubated for 24 hr in chambers and were analyzed by staining PI and counted under a microscope. Representative fields of invasive cells on the transwell membrane (at 100× magnification) and the invasion rate were shown. The LL/2 cells treated with CXCL8 (100 ng/ml), RISE P-8 (200 ng/ml), or MIP-2 (50 ng/ml) respectively. […] MIP-2 is the CXCL8 homologues in murine.

Setting [8] is: IL-8 100 ng/mL + RISE P-8 200 ng/mL vs IL-8 group.
Where [9] appears, read: RISE P-8 200 ng/mL, Gefitinib 5 μM, 24 hrs, vs control group.

On to `COc1cc2ncnc(Nc3ccc(F)c(Cl)c3)c2cc1OCCCN1CCOCC1` [Gefitinib], for which the “IL-8, CXCR1 and CXCR2 mRNA expression” value was “significantly enhanced” in [1] (5 μM Gefitinib, 24 hrs) and “significantly enhanced” in assay [2]. The “CXCR1 and CXCR2 mRNA expression” value in assay [1] (gefitinib 5 μM, 24 hours) is reported as “increased”. Also, in assay [1] (gefitinib 5 μM, 24 hours), the “IL-8 mRNA expression” value was “increased”.

B1: RISE P-8: chemokine analogue peptide, SEQ ID NO: 1; analogous protein of CXCL8 (IL-8), antagonist of CXCR1 and CXCR2 (protein)
chain: GSKELRCQCIRSYSKPFHPKFIKELRVIPASQFCANTEIIVKLSDGRELCLDPKENWVQRVVEKFLKRAENS
modifications: RISE P-8
notes: analogous protein of CXCL8 (IL-8), antagonist of CXCR1 and CXCR2
Take B1: the “neutrophil chemotaxis (Chemotaxis Index)” value in the assay with human neutrophil is “effectively antagonize neutrophil response to CXCL8”. The “IL-8 protein expression (autocrine secretion)” value in the assay on IL-8 in PC9GR and with IL-8 in PC9 was “significantly attenuate IL-8 autocrine only in suspended culture” throughout. Moreover, the colony formation rate result in the assay with HCC827GR [3] and in the assay with PC9GR [4] was “slow down significantly” each time. Besides, the “invasion rate, IL-8 stimulated” value in the assay with HCC827GR [5] (setting [8]) and in the assay on PC9GR [6] (setting [8]) was “prevent significantly invasion rate” each time. The invasion rate entry in the assay with HCC827GR [5] (setting [9]) and with PC9GR [6] (setting [9]) was “decreases invasion rate” throughout. Further, in assay [7] (LL/2, CXCL8 100 ng/ml), the “invasion rate, CXCL8 stimulated” value was “significantly suppressed CXCL8 stimulated cell invasion”. Also, the “number of invasive cells, MIP-2 induced” value in assay [7] (LL/2, MIP-2 50 ng/ml) is “significantly decreased the number of invasive cells”.
